Measurements published in patent US20240317834A1, “COMPOSITIONS AND METHODS FOR NEUROLOGICAL DISEASES” (CODA BIOTHERAPEUTICS, INC., priority 2020, published 2024).

How the values were obtained:
[1] = test system: Lenti-X 293T cells; assay: YFP fluorescence quenching anion reporter plate reader assay of engineered receptors stimulated with acetylcholine or a non-native ligand; assay type: cell-based
Method in brief: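 Lenti-X 293T cells carrying a YFP anion reporter were transiently transfected with channel DNA and assayed the next day in HEPES-buffered ECS at pH 7.2. Ligand (acetylcholine or non-native ligand) was added in NaI-substituted ECS. Percent quench was the mean of the last 10 s relative to the 15 s pre-addition baseline.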

[2] = test system: rat DRG neurons; assay: Rheobase shift and evoked action potentials in rat DRG neurons (current clamp); assay type: cell-based
Description: Using whole cell manual patch clamp electrophysiology in HEK293 cells, rat DRG neurons and rat hippocampal neurons, the EC50 of the various engineered receptors disclosed herein to Ach and non-native ligands was measured using the Hill equation with peak current measurements from escalating doses of ligand. The rheobase shift was also measured in rat DRG neurons, which reflects the efficacy of the receptors. To calculate the rheobase, first, the amount of current that can produce an action potential was determined. Then the ligand was added, followed by a step wise increase in the current injected up to 700 pA.
For manual patch clamp experiments, Cells plated on coverslips were visualized at 10× and 40× on an inverted fluorescence microscope (Olympus). Recordings were made with an Axopatch 200B amplifier and Digidata 1550B (Molecular Devices) at RT using 3-6 MOhm glass patch electrodes (Sutter, BF150-86-10). Unless otherwise stated, recordings were made in extracellular solution (ECS) containing: 140 mM sodium chloride, 4 mM potassium chloride, 1 mM magnesium chloride, 2 mM calcium chloride, 10 mM HEPES, and 10 mM D-(+)-glucose (pH=7.3 with sodium hydroxide, osmolarity=305−315 mOsm). An 8-line reservoir (AutoMate Scientific) in combination with an 8-channel zero-dead-volume perfusion pencil (AutoMate Scientific) was used for perfusion. Data was acquired using pClamp software (Molecular Devices). Traces were either analyzed in Clampfit (Molecular Devices) or using custom Python code. Plotting and statistics were performed in GraphPad Prism.
DRG rheobase experiments were performed in current clamp mode using a potassium-based internal solution containing: 100 mM potassium D-gluconate, 28 mM potassium chloride, 1 mM magnesium chloride hexahydrate, 5 mM magnesium ATP, 10 mM HEPES, and 0.5 mM EGTA (pH=7.2 with potassium hydroxide, osmolarity=290-295 mOsm, calculated liquid junction potential=−13.5 mV). To measure DRG input resistance and rheobase, 500 ms current steps (−200 pA to 700 pA) were applied the membrane in the presence and absence of a compound. No holding current was applied to the membrane for cells included in the final datasets. Data were acquired at 10 kHz, with Bessel filter at 2 kHz and series resistance compensation at 100%. Rheobase was defined as the smallest depolarizing current injection required to cause an action potential to fire in the cell. In a subset of cells, the rheobase was ambiguous, since the action potential appeared to be graded in amplitude. In these cases, a […] of the trace clarified the rheobase. Input resistance was measured from the negative current injections, calculated as the difference in membrane potential at steady state divided by the current injection amplitude and then averaged across the four negative current steps for each recording. Resting membrane potential was measured from the first 100 ms of each sweep, averaged for each recording, and corrected for liquid junction potential. One-way ANOVA with multiple comparisons was used to test for significance of difference in rheobase and input resistance between baseline, drug, and wash conditions.

B1: CODA1039: engineered chimeric LGIC receptor, Y115E, Y210W in SEQ ID NO: 33 (protein)
chain: MRCSPGGVWLALAASLLHVSLQGEFQRKLYKELVKNYNPLERPVANDSQPLTVYFSLSLLQIMDVDEKNQVLTTNIWLQMSWTDHYLQWNVSEYPGVKTVRFPDGQIWKPDILLENSADERFDATFHTNVLVNSSGHCQYLPPGIFKSSCPMDLKNFPMDVQTCKLKFGSWSYGGWSLDLQMQEADISGYIPNGEWDLVGIPGKRSERFWECCKEPYPDVTFTVTMRRRMGYYLIQMYIPSLLIVILSWISFWINMDAAPARVGLGITTVLTMTTQSSGSRASLPKVSYVKAIDIWMAVCLLFVFSALLEYAAVNFVSRQHKELLRFRRKRRHHKSPMLNLFQEDEAGEGRFNFSAYGMGPACLQAKDGISVKGANNSNTTNPPPAPSKSPEEMRKLFIQRAKKIDKISRIGFPMAFLIFNMFYWIIYKIVRREDVHNQ
modifications: synthetic sequence of chimeric LGIC
[1]; 1 nM CNL001, first column
  YFP fluorescence quenching using CNL001: −1.12%
[1]; 1 nM CNL001, second column
  YFP fluorescence quenching using CNL001: −3.941%
[1]; 1 nM brd
  YFP fluorescence quenching using TC-5619/Bradanicline: −5.55%
[1]; 3 nM brd
  YFP fluorescence quenching using TC-5619/Bradanicline: 6.78%
[1]; 3 nM var, first column
  YFP fluorescence quenching using Varenicline: −10.926
[1]; 3 nM var, second column
  YFP fluorescence quenching using Varenicline: −7.395
[1]; 10 nM CNL001, first column
  YFP fluorescence quenching using CNL001: 6.275%
[1]; 10 nM CNL001, second column
  YFP fluorescence quenching using CNL001: 11.943%
[1]; 10 nM brd
  YFP fluorescence quenching using TC-5619/Bradanicline: −2.7%
[1]; 30 nM brd
  YFP fluorescence quenching using TC-5619/Bradanicline: 34.43%
[1]; 30 nM fac
  YFP fluorescence quenching using Facinicline: −13.46
[1]; 30 nM var, first column
  YFP fluorescence quenching using Varenicline: −5.661
[1]; 30 nM var, second column
  YFP fluorescence quenching using Varenicline: −1.244
[1]; 50 nM CNL001, first column
  YFP fluorescence quenching using CNL001: 12.949%
[1]; 50 nM CNL001, second column
  YFP fluorescence quenching using CNL001: 18.635%
[1]; 50 nM abt
  YFP fluorescence quenching using ABT-126: −17.32%
[1]; 100 nM CNL001, first column
  YFP fluorescence quenching using CNL001: 17.576%
[1]; 100 nM CNL001, second column
  YFP fluorescence quenching using CNL001: 18.319%
[1]; 100 nM CNL002
  YFP fluorescence quenching using CNL002: 21.85%
[1]; 100 nM abt
  YFP fluorescence quenching using ABT-126: −13.93%
[1]; 100 nM azd0328
  YFP fluorescence quenching using AZD-0328: −10.45%
[1]; 300 nM abt
  YFP fluorescence quenching using ABT-126: 9.9%
[1]; 300 nM azd0328
  YFP fluorescence quenching using AZD-0328: −13%
[1]; 300 nM brd
  YFP fluorescence quenching using TC-5619/Bradanicline: 70.05%
[1]; 300 nM fac
  YFP fluorescence quenching using Facinicline: 5.43
[1]; 300 nM var, first column
  YFP fluorescence quenching using Varenicline: −4.555
[1]; 300 nM var, second column
  YFP fluorescence quenching using Varenicline: 1.081
[1]; 500 nM abt
  YFP fluorescence quenching using ABT-126: 36.97%
[1]; 500 nM var, first column
  YFP fluorescence quenching using Varenicline: 9.172
[1]; 500 nM var, second column
  YFP fluorescence quenching using Varenicline: 12.561
[1]; 1 uM CNL001, first column
  YFP fluorescence quenching using CNL001: 19.329%
[1]; 1 uM CNL001, second column
  YFP fluorescence quenching using CNL001: 20.672%
[1]; 1 uM CNL002
  YFP fluorescence quenching using CNL002: 47.37%
[1]; 1 uM abt
  YFP fluorescence quenching using ABT-126: 48.37%
[1]; 1 uM tc6987
  YFP fluorescence quenching using TC-6987: 7.26
[1]; 1 uM var, first column
  YFP fluorescence quenching using Varenicline: 7.139
[1]; 1 uM var, second column
  YFP fluorescence quenching using Varenicline: 12.664
[1]; 3 uM abt
  YFP fluorescence quenching using ABT-126: 50.5%
[1]; 10 uM abt
  YFP fluorescence quenching using ABT-126: 58.13%
[1]; 10 uM tc6987
  YFP fluorescence quenching using TC-6987: 11
[1]; 30 uM CNL002
  YFP fluorescence quenching using CNL002: 59.97%
[1]; 30 uM abt
  YFP fluorescence quenching using ABT-126: 64.1%
[1]; 30 uM azd0328
  YFP fluorescence quenching using AZD-0328: 30.76%
[1]; 30 uM fac
  YFP fluorescence quenching using Facinicline: 49.06
[1]; 50 uM abt
  YFP fluorescence quenching using ABT-126: 66.67%
[1]; 100 uM abt
  YFP fluorescence quenching using ABT-126: 68.63%
[1]; 500 uM tc6987
  YFP fluorescence quenching using TC-6987: 7.97
[1]; TC-6683 30 nM
  percent quench of YFP fluorescence, 30 nM TC-6683: −1.608%
[1]; TC-6683 300 nM
  percent quench of YFP fluorescence, 300 nM TC-6683: −3.491%
[1]; TC-6683 3 uM
  percent quench of YFP fluorescence, 3 uM TC-6683: −6.153%
[1]; TC-6683 30 uM
  percent quench of YFP fluorescence, 30 uM TC-6683: −9.263%
[1]; TC-6683 100 uM
  percent quench of YFP fluorescence, 100 uM TC-6683: −9.19%
[1]; acetylcholine 10 uM
  percent quench of YFP fluorescence, 10 uM ach: −2.97%
[1]; acetylcholine 50 uM
  percent quench of YFP fluorescence, 50 uM ach: −3.94%
[1]; acetylcholine 100 uM
  percent quench of YFP fluorescence, 100 uM ach: 0.35%
[1]; acetylcholine 300 uM
  percent quench of YFP fluorescence, 300 uM ach: −4.13%
[1]; acetylcholine 500 uM
  percent quench of YFP fluorescence, 500 uM ach: −5.18%
[1]; acetylcholine 1 mM
  percent quench of YFP fluorescence, 1 mM ach: 1.21%
[1]; acetylcholine 3 mM
  percent quench of YFP fluorescence, 3 mM ach: 26.69%
[2]; +TC-5619 @ EC90
  Rheobase Shift; Rat DRG Neurons, +TC-5619 @ EC90: 453 ± 58 pA
[2]; Baseline, no ligand
  Rheobase Shift; Rat DRG Neurons, Baseline: 88 ± 9 pA
